Results as given in paper PMC4224745, “Modulation, Bioinformatic Screening, and Assessment of Small Molecular Peptides Targeting the Vascular Endothelial Growth Factor Receptor” (Cell Biochemistry and Biophysics, 2014).
No end group written: not given here.

Assays:
A549 cells = assay: Fluorescence microscopy of rhodamine-conjugated peptides binding to A549 cells; assay type: cell-based, human; conditions: rhodamine-conjugated peptides 45 µmol/L, fixed A549 cells, 2 h at 4 °C (method) or 6 h (results)
Experimental: The highest affinity peptides, NO.15 (QKRKRKKSRKKH) and NO.17 (RKRKRKKSRYIVLS), were conjugated with a fluorochrome, and fluorescence microscopy was used to observe binding to A549 cells as follows. A549 cells were plated on coverslips and grown overnight. The cells were then washed three times with PBS and fixed with 4 % paraformaldehyde for 15 min at room temperature. The cells were incubated at 37 °C for 30 min with 2 % BSA to block nonspecific binding, and subsequently washed three times with PBS. Rhodamine-conjugated peptides (45 µmol/L) were added and incubated with the cells for 2 h at 4 °C. After three washes with PBS, fluorescence microscopy (maximum absorption wavelength of 552 nm) was used to observe cellular staining. Unconjugated rhodamine was used as staining control.

VEGFR = assay: In vitro receptor competition binding assay with 125I-VEGF165 on A549 cells; set-up: species or system human; conditions: for IC50: A549 cells, peptide 0–6,500 nmol/L, 30 min at 4 °C, then 125I-VEGF165 0.37 μg/L for 2 h at 4 °C, γ-counter, duplicate wells, read-out: IC50, competitive VEGFR binding with 125I-VEGF; for Fold increase in affinity for VEGFR relative to VEGF125–136: from the IC50 values of the 125I-VEGF competition on A549 cells
Experimental: A549 cells were cultured in 24-well culture plates at 3 × 10^4 cells/well in duplicate for each treatment. Cultures were maintained at 37 °C in a 5 % CO2 incubator. After 24 h, the culture supernatant was discarded, and cells were washed in PBS, followed by the addition of serum-free culture medium (Hyclone, Logan, UT) before performing an in vitro competitive-binding assay. To each well, VEGF125–136 or optimized peptides were added at the following concentrations: 0, 1.3, 6.5, 32.5, 65, 650, and 6,500 nmol/L. After a 30-min incubation period at 4 °C, 1.85 kBq ^125I-VEGF165 (PerkinElmer,Boston, MA) at a final concentration of 0.37 μg/L was added to each well, and the plates were further incubated for another 2 h at 4 °C. The culture supernatant was discarded, and the cells were washed twice with pre-cooled (4 °C) PBS containing 0.1 % BSA to remove unbound ^125I-VEGF165. The cells were then trypsin digested and quickly filtered through glass fiber filter paper using a multi-channel microfluidic device. Radioactive counts (cpm) on the filter paper were determined using a γ-counter (Chongqing Optical & Electrical Instrument). Peptide competition binding curves were plotted, and IC50 values for each peptide were calculated using SPSS13.0 statistics software.

[1] = biological target: vascular endothelial growth factor receptor (VEGFR) (human (endogenous in A549), UniProt P17948 27-1338); assay: radioligand binding; competition on A549 cells in 24-well plates, serum-free medium: peptide at 0-6,500 nmol/L for 30 min at 4 °C, then 1.85 kBq 125I-VEGF165 (0.37 μg/L) for 2 h at 4 °C; washed, trypsinised, filtered, γ-counted; IC50 by SPSS13.0; conditions: one partner purified
Chain of vascular endothelial growth factor receptor (VEGFR) (P17948 27-1338): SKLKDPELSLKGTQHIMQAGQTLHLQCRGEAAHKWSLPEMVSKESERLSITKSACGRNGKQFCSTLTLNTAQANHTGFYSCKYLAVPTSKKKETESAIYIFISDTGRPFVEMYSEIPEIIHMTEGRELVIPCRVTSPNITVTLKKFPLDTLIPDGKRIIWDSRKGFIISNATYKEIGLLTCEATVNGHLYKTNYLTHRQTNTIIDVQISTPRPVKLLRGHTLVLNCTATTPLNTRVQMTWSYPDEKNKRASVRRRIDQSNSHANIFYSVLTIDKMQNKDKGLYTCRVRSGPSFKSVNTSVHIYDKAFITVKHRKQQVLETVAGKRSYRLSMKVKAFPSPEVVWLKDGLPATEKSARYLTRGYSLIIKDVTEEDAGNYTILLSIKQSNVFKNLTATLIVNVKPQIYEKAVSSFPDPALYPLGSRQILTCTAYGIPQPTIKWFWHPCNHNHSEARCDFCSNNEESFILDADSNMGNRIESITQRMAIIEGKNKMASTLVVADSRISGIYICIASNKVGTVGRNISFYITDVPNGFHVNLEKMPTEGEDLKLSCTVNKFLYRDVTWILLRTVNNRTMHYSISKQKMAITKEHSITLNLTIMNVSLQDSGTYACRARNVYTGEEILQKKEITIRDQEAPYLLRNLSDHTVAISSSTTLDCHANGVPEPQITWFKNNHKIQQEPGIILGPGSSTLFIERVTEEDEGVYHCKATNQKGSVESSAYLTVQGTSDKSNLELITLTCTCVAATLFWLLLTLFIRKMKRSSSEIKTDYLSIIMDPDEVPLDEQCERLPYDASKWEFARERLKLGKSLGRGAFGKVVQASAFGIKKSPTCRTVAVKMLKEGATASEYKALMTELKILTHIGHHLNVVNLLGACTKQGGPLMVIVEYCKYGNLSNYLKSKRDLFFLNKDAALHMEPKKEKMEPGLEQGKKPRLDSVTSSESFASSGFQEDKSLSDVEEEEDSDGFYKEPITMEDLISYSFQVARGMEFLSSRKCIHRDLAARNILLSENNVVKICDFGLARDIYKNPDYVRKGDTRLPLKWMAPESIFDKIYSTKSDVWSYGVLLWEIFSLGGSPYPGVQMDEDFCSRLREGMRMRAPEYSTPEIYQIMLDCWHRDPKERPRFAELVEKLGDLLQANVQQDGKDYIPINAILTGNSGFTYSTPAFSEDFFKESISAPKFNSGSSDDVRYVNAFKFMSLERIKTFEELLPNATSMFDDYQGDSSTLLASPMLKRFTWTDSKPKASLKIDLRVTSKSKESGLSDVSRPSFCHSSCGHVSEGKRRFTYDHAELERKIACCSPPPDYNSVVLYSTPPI

Molecule | IC50 [1] [nM] | further results
QKRKRKKSRKKH [compound 15] | – | Binding sites / fluorescent staining on A549 cells (A549 cells): plasma membrane and perinuclear cytoplasm; IC50 (VEGFR): 80 ± 7 nM; Fold increase in affinity for VEGFR relative to VEGF125–136 (VEGFR; listed as QKRKRKKSRKKH): 6 fold and ≈ 6 fold
rhodamine [unconjugated rhodamine, reference compound] | – | Binding sites / fluorescent staining on A549 cells (A549 cells): did not result significant levels of fluorescent staining
RKRKRKKSRYIVLS [compound 17] | – | Binding sites / fluorescent staining on A549 cells (A549 cells): plasma membrane and perinuclear cytoplasm; IC50 (VEGFR): 185 ± 14 nM; Fold increase in affinity for VEGFR relative to VEGF125–136 (VEGFR): 2.5 fold
QKRKRKKSRYKY | 280 ± 13 | –
RKRKRKKSRKKH | 283 ± 9 | –
KKRKRKKSRKRK | 315 ± 11 | –
QFRKRKKSRYKF | 323 ± 17 | –
QKRKRKKSRYRK | 405 ± 20 | –
QHKRKRKKSRIVL | 424 ± 37 | –
QKRKRKKSRYPLS | 542 ± 16 | –
QKRKRKKSRYKK | 571 ± 40 | –
QKRKRKKSRYPK | 602 ± 19 | –
IVFKRKRKKSRYLS | 637 ± 25 | –
QKRKRKKSRYKS (also called Control) [VEGF_(125–136)] | 464 ± 12 | –
QFRKRKKSRYKS | 665 ± 38 | –
QFRKRKKSRYLS | 694 ± 29 | –
QFRKRKKSRYPS | 4210 ± 76 | –
QKRKRKKSRKKH (also called NO.15) | 80 ± 7 | –
QFRKRKKSRWKS | 92 ± 9 | –
RKRKRKKSRYIVLS (also called NO.17) | 185 ± 14 | –
FFRKRKKSRYKS | 188 ± 25 | –
QFRKRKKSRYKH | 252 ± 16 | –
QFRKRKKSRYPK | 273 ± 19 | –
KFRKRKKSRYIV | 273 ± 33 | –
